Experiment [1] has as its target human IgG (Oriental Yeast Co., ltd) (human). The experiment in a line: affinity column (1 ml carrier with immobilised protein), human IgG 1 mg/ml at pH 7.2, 10% breakthrough, flow rate 1.0 mL/min.
Experiment [2] shares this target. The experiment can be described thus: affinity column (1 ml carrier with immobilised protein), human IgG 1 mg/ml at pH 7.2, 10% breakthrough, flow rate 0.4 mL/min.
Experiment [3] has the same target. The experiment can be described thus: pH gradient affinity chromatography, bound at pH 7.2, gradient 20 mM citric acid pH 6.0 to pH 2.4 over 80 min.

One molecule from patent publication US20160280744A1 can be followed below.

B1: tandem-type tetramer PG, rPG-A4 (CGB19H-4D) (designed binder)
chain: MAYYDPETGTWYSGGRDTYKLILNGKTLKGETTTEAVDAATAEKVFKHYANEHGVHGHWTYDPETKTFTVTERPEVIDASELTPAVDTYKLILNGKTLKGETTTEAVDAATAEKVFKHYANEHGVHGHWTYDPETKTFTVTERPEVIDASELTPAVDTYKLILNGKTLKGETTTEAVDAATAEKVFKHYANEHGVHGHWTYDPETKTFTVTERPEVIDASELTPAVDTYKLILNGKTLKGETTTEAVDAATAEKVFKHYANEHGVHGHWTYDPETKTFTVTERPEVIDASELTPAVGGGGSGGGGSGGGGSGGGGCHHHHHH
For the molecule B1, the dynamic binding capacity (DBC) in experiment [1] was 5.3 mg; in experiment [2], 12.3 mg. Besides, the pH at the peak of the elution of human IgG in experiment [3] is 4.4 pH.
